# Test results reported in patent US20210079111A1 (ABCYTE THERAPEUTICS, published 2021).
# T1: CD19 on CD19 positive cells (Raji, Nalm-6) (human, UniProt P15391 20-556)
# T1 sequence (looked up): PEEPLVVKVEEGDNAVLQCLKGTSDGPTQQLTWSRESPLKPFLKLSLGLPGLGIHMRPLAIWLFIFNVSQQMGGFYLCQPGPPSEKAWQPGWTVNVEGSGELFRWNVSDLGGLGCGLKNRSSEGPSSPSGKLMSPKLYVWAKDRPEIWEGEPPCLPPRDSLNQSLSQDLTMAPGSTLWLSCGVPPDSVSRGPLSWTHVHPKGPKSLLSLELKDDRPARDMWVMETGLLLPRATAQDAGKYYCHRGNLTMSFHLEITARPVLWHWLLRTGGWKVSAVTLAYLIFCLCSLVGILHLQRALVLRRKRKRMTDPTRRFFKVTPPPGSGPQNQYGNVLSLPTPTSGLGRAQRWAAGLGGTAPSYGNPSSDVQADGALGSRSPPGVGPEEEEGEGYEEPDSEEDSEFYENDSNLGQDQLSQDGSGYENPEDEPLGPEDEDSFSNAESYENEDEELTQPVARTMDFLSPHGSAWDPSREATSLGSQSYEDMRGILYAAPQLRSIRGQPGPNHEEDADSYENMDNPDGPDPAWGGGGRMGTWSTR
# T2: CD20 on CD20 positive cells (Raji, Nalm-6) (UniProt P11836 1-297, limits assumed)
# T2 sequence (looked up): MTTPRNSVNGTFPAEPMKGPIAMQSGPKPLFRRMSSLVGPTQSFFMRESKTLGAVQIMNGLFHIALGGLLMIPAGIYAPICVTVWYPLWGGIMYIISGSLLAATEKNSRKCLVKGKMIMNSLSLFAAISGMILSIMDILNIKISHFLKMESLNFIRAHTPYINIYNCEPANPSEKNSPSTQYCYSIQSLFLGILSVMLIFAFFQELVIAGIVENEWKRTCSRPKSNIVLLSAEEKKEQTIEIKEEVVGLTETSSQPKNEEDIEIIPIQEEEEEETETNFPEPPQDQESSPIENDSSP
# B1: CAR-1-CD19 (full humanized anti-CD19 single CAR), on transduced T cells (other)
# chain: DIQMTQSPSSLSASVGDRVTITCRASQDISKYLNWYQQKPGKAPKLLIYHTSRLHSGVPSRFSGSGSGTDYTLTISSLQPEDFATYYCQQGNTLPYTFGGGTKVEIKGSTSGGGSGGGSGGGGSSQVQLQESGPGLVKPSQTLSLTCTVSGVSLPDYGVSWIRQPPGKGLEWLGVIWGSETTYYNSALKSRLTISRDNSKNTLYLQMNSLRAEDTAVYYCAKHYYYGGSYAMDYWGQGTTVTVSSTTTPAPRPPTPAPTIASQPLSLRPEACRPAAGGAVHTRGLDFACDFWLPIGCAAFVVVCILGCILICWLTKKKYSSSVHDPNGEYMFMRAVNTAKKSRLTDVTLRVKFSRSADAPAYKQGQNQLYNELNLGRREEYDVLDKRRGRDPEMGGKPRRKNPQEGLYNELQKDKMAEAYSEIGMKGERRRGKGHDGLYQGLSTATKDTYDALHMQALPPR
# B2: CAR-1-CD20 (full humanized anti-CD20 single CAR), on transduced T cells (other)
# chain: EIVLTQSPATLSLSPGERATMTCRASSSVNYMDWYQQKPGQAPRPWIYATSNLASGVPARFSGSGSGTDFTLTISSLEPEDFAVYYCQQWSFNPPTFGGGTKVEIKGSTSGGGSGGGSGGGGSSQVQLVQSGAEVKKPGASVKVSCKASGYTFTSYNMHWVRQAPGQGLEWIGAIYPGNGDTSYNQKFKGKATLTRDTSTSTVYMELSSLRSEDTAVYYCARSNYYGSSYWFFDVWGQGTTVTVSSTTTPAPRPPTPAPTIASQPLSLRPEACRPAAGGAVHTRGLDFACDFWLPIGCAAFVVVCILGCILICWLTKKKYSSSVHDPNGEYMFMRAVNTAKKSRLTDVTLRVKFSRSADAPAYKQGQNQLYNELNLGRREEYDVLDKRRGRDPEMGGKPRRKNPQEGLYNELQKDKMAEAYSEIGMKGERRRGKGHDGLYQGLSTATKDTYDALHMQALPPR
# Experiments:
# [1] = target: CD19 CAR chain of CD19 CAR-mIL7 (CAR-1-CD19/CAR-2-IL-7, plasmid PC035), on transduced T cells; experiment: flow cytometry, CD19 CAR-mIL7 T cells stained with Protein L
# [2] = target: T1, CD19 on CD19 positive cells (Raji, …); experiment: cell-based or functional assay
# [3] = target: T2, CD20 on CD20 positive cells (Raji, …); experiment: cell-based or functional assay
molecule,measurement,setting,value
Protein L,percent positive cells,[1],49%
B1,"target cell killing at E/T ratio at 10:1, 4 h, Raji and Nalm-6 co-culture (flow cytometry, CFSE/Annexin/PI)",[2],> 90%
B2,"target cell killing at E/T ratio at 10:1, 4 h, Raji and Nalm-6 co-culture (flow cytometry, CFSE/Annexin/PI)",[3],> 80%
